Assay [1] addresses T1, soluble ErbB4 ectodomain (UniProt Q15303).
T1 sequence: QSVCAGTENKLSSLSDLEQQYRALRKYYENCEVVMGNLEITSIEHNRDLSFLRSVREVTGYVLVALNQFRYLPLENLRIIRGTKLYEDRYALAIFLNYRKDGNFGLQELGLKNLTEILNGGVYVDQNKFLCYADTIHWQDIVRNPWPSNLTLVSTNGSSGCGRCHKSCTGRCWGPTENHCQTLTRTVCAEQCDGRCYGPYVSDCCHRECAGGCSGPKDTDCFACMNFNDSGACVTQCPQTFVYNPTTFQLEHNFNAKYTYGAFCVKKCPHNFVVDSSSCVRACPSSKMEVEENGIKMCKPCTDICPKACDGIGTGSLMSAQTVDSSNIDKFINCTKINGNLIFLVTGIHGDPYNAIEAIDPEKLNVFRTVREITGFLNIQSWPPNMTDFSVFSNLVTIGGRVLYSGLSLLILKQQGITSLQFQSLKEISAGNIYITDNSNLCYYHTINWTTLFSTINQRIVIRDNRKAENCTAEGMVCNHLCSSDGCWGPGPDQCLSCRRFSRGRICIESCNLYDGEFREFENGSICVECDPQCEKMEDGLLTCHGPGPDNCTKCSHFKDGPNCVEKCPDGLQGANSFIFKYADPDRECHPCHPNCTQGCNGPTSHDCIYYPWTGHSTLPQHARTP

The target of assay [2] is T1, soluble ErbB4 ectodomain. This is another data set of the same source.
The target of assay [3] is T2, His-tagged extracellular subdomain IV of ErbB4 (Homo sapiens, isoform JM-a, UniProt Q15303).
T2 construct: ErbB4 extracellular subdomain IV; construct limits are in File S1; source: COS-7, transiently transfected, in conditioned medium; not shown: His tag, C-terminal, kept
Put plainly: Western blot; conditioned media of COS-7 transfectants expressing the His-tagged subdomains, blotted under non-reducing conditions, mAb 1479 as the primary antibody; anti-pentaHis as control of expression. The note with it: one partner purified.

T2 sequence (Q15303 whole entry, looked up, tested part not stated, canonical isoform): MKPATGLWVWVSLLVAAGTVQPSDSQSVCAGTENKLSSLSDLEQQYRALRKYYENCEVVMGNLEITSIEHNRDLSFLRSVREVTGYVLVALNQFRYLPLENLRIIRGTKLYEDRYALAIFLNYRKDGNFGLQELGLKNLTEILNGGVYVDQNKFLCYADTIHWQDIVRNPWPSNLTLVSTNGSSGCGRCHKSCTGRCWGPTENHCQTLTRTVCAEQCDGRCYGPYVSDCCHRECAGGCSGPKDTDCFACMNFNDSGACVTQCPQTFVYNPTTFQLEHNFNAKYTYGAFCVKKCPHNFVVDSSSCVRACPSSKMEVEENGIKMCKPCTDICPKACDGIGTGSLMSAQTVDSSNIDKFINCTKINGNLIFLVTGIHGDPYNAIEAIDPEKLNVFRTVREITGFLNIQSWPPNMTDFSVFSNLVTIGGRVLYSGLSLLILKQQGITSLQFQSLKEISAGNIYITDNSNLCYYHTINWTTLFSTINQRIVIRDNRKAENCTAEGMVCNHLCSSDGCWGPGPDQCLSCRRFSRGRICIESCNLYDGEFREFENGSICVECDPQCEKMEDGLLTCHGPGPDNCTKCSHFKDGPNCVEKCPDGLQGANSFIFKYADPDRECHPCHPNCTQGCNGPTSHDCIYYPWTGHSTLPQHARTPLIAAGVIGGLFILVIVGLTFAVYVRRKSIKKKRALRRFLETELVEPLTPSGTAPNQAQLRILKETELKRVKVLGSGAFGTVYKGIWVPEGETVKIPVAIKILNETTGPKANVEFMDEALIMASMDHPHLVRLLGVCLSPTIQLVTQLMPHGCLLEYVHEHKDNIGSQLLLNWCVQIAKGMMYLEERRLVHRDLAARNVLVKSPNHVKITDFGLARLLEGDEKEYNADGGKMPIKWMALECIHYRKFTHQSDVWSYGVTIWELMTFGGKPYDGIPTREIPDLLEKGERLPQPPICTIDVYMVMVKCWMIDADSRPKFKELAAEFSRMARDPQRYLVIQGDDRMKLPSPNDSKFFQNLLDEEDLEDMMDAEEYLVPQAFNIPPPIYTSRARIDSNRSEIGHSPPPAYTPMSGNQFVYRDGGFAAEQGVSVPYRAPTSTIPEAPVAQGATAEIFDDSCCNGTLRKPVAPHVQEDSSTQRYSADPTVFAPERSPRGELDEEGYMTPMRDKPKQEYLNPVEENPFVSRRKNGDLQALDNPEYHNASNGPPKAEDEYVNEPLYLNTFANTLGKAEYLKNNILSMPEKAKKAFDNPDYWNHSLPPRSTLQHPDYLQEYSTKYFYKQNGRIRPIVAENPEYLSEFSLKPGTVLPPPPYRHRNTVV

B1: anti-ErbB4 monoclonal antibody mAb 1479 (antibody, V domains shown)
VH: QVTLKESGPGILQPSQTLSLTCSFSGFSLSTYGIGVGWIRQPSGKGLEWLAHIWWNDNKYYNIALRSRLTISKDTSNNQVFLKIASVDTADTATYYCARIPDDHYFDYWGQGTTLTVSS
VL: DVLMTQTPLSLPVSLGDQASISCRSSQSIVHSNGNTYLEWYLQKPGQSPKLLIYKVSNRFSGVPDRFSGSGSGTDFTLKISRVEAEDLGVYYCFQGSHVPWTFGGGTKLEIK
notes: constant part of the IgG2 isotype; mouse monoclonal antibody, IgG2 isotype
In the assay with soluble ErbB4 ectodomain [1], B1 came in with a relative proportion of the 80 kD carboxy-terminal fragment of the total ErbB4 in T-47D xenografts (Western blot with E-200), control IgG against mAb 1479 of 74%. The same molecule had a relative proportion of the 100 kD ectodomain fragment of total ErbB4 in T-47D xenografts (Western blot with mAb 1464), control IgG against mAb 1479 with soluble ErbB4 ectodomain [2] of 9%. Further, the binding result in assay [3] is recorded as “binds”.
